Assay results from the DeepSol protein solubility set.

Experiment: soluble on expression in E. coli; label from the status in PepcDB or PDB records

Row | Sequence | soluble on expression in E. coli
1 | SHMQSRELKTVSADCKKEAIEKCAQWVVRDCRPFSAVSGSGFIDMIKFFIKVKAEYGEHVNVEELLPSPITLSRKVTSDAKEKKALIGREIKSAVEKDGASATIDLWTDNYIKRNFLGVTLHYHENNELRDLILGLKSLDFERSTAENIYKKLKAIFSQFNVEDLSSIKFVTDRGANVVKSLANNIRINCSSHLLSNVLENSFEETPELNMPILACKNIVKYFKKANLQHRLRSSLKSECPTRWNSTYTMLRSILDNWESVIQILSEAGETQRIVHINKSIIQTMVNILDGFERIFKELQTCSSPSLCFVVPSILKVKEICSPDVGDVADIAKLKVNIIKNVRIIWEENLSIWHYTAFFFYPPALHMQQEKVAQIKEFCLSKMEDLELINRMSSFNELSATQLNQSDSNSHNSIDLTSHSKDISTTSFFFPQLTQNNSREPPVCPSDEFEFYRKEIVILSEDFKVMEWWNLNSKKYPKLSKLALSLLSIPASSAASERTFSLAGNIITEKRNRIGQQTVDSLLFLNSFYKNFCK | soluble
2 | MGSDKIHHHHHHMVDFKEQQQRYWQLLHQPESLFLLHRANDVEHFIALMTDFLAWPELSLEHMLAFIALQQDSFIPDLDRFSQAWFPCRYHSQHKTVSWVPALHKLSKPFLEDDISDARRCLLASFIQPSTLLEPLLSQRESLPIVNPSLMIFHWSRCGSTLVSSSFALLETCRVLSESMLCSDVMHDDHWPLALKPQLVDLCLRLQGRLRLGERKLVIKWNAWDLACWPMLLELYPKSRVLCLIRNPKDIIDSHQRVAGRHMAGGQSLLPTELQTQQMENTDTEPSLDEFRTTVLQYLAQLSLALHQSSRVILLDYHQLTDFKPTTFSTILGWALSEGEIERWQHHWRFDAKQQGQLFTPVVPNEPVPIRECQNPSWQQLLITYNQLLQRLYWDKKA | not soluble
3 | GIQPVISAQEQETQIVLYGKLVEARQKHANKMDVPPAILATNKILVDMAKMRPTTVENVKRIDGVSEGKAAMLAPLLEVIKHFCQTNSVQTDLFSSTKPQEEQ | soluble
4 | MSLNARTNIALLANSSSPLHPLQELLAVAGYQCNVFHAGRDLIQGLGHDTYEMLLIDRELADISAIDVIRTVRAVRNRDVPIVIFASENNDDDLVEALDAGADDYVLRPLAARVLLARIAALRRRMSGTRLRGAMPLRAGPYELSNPGRYATLNGGRIPMTPKEFDLAMLMFANAGRILASRRIEHTIWGHDLPPYSRALAGLVSRMRRTLNLCAENGVTVSVVYAQGYRLDILDEGHHHHHH | not soluble
5 | MGSDKIHHHHHHMPIHLIWGDDAAARDHAIETLIGDVVDQAWSSINLSRLDGADAGQASQALAEARTPPFGSGGRLVLLQRSPFCNACPSELANRFEDVLDLIPETSHLVLCNPNKPDGRLRTTKALQKLVKLKQASEKSFLLPAIWDGAGQQELVERTARDLGLQLEPEATAALVEAIGNDSTRLTAELQKLALHADIRQESATENQSPTLIKAENVAALIEGMATNALQVGDSLLAGHAGEAIARLDALLDAGEPALRIVATLTGQIRGWLWVSLLEQQGERDVNVIAKAAGIGNPKRIYVMRKQLQGRPPQRFLTLLSRLLEVEAALKRGAIPTDAFRDGLLSTP | not soluble
6 | MFRAGEASKRPLPGPSPPRVRSVEVARGRAGYGFTLSGQAPCVLSCVMRGSPADFVGLRAGDQILAVNEINVKKASHEDVVKLIGKCSGVLHMVIAEGVGRFESCSSDEEGGLYEGKGWLKPKLDSKALGINRAERVVEEMQSGGIFNMIFENPSLCASNSEPLKLKQRSLSESAATRFDVGHESINNPNPNMLSKEEISKVIHDDSVFSIGLESHDDFALDASILNVAMIVGYLGSIELPSTSSNLESDSLQAIRGCMRRLRAEQKIHSLVTMKIMHDCVQLSTDKAGVVAEYPAEKLAFSAVCPDDRRFFGLVTMQTNDDGSLAQEEEGALRTSCHVFMVDPDLFNHKIHQGIARRFGFECTADPDTNGCLEFPASSLPVLQFISVLYRDMGELIEGMRARAFLDGDADAHQNNSTSSNSDSGIGNFHQEEKSNRVLVVDLGGSSSRHGPGGSAWDGVGGRGAQPWGAPWTGPFCPDPEGSPPFEAAHQTDRFWDLNKHLGPASPVEVPPASLRSSVPPSKRGTVGAGCGFNQRWLPVHVLREWQCGHTSDQDSYTDSTDGWSSINCGTLPPPMSKIPADRYRVEGSFAQPPLNAPKREWSRKAFGMQSIFGPHRNVRKTKEDKKGSKFGRGTGLTQPSQRTSARRSFGRSKRFSITRSLDDLESATVSDGELTGADLKDCVSNNSLSSNASLPSVQSCRRLRERRVASWAVSFERLLQDPVGVRYFSDFLRKEFSEENILFWQACEYFNHVPAHDKKELSYRAREIFSKFLCSKATTPVNIDSQAQLADDVLRAPHPDMFKEQQLQIFNLMKFDSYTRFLKSPLYQECILAEVEGRALPDSQQVPSSPASKHSLGSDHSSVSTPKKLSGKSKSGRSLNEELGDEDSEKKRKGAFFSWSRTRSTGRSQKKREHGDHADDALHANGGLCRRESQGSVSSAGSLDLSEACRTLAPEKDKATKHCCIHLPDGTSCVVAVKAGFSIKDILSGLCERHGINGAAADLFLVGGDKPLVLHQDSSILESRDLRLEKRTLFRLDLVPINRSVGLKAKPTKPVTEVLRPVVARYGLDLSGLLVRLSGEKEPLDLGAPISSLDGQRVVLEEKDPSRGKASADKQKGVPVKQNTAVNSSSRNHSATGEERTLGKSNSIKIKGENGKNARDPRLSKREESIAKIGKKKYQKINLDEAEEFFELISKAQSNRADDQRGLLRKEDLVLPEFLRLPPGSTELTLPTPAAVAKGFSKRSATGNGRESASQPGEQWEPVQESSDSPSTSPGSASSPPGPPGTTPPGQKSPSGPFCTPQSPVSLAQEGTAQIWKRQSQEVEAGGIQTVEDEHVAELTLMGEGDISSPNSTLLPPPSTPQEVPGPSRPGTSRF | soluble
7 | MAQSNTTTTTLVVKSEDQEEVQEEHVLRLRAPPSPPHVTWAEGVVDNEHMGRLKSNCCCIYVAPRQWDDPSTWEPNEYETEHCRGHTLPERKKKKEDGGDEGDDENKENKDNKDNKDNKDNKDNNGCGCDHC | not soluble
8 | MQPLERSLTGAVGAALAAAGLRSRSGLEKVVLTGLGAGLIAVAARGQNPLATALKIEQNDEGETVVRDAVTIGKPAEQLYAVWRDLPGLPLLMTHLRSVEVLDDKRSRWTVEAPAPLGTVSWEAELTADEPGKRIAWRSLPGARIENSGEVLFRPAPGARGTEVVVRLTYRPPGGSAGAVIARMFNQEPSQQLRDDLMRFKREQELGLEHHHHHH | not soluble
9 | MTEIKYKVITKDAFALPYTIIKAKNQPTKGVIVYIHGGGLMFGKANDLSPQYIDILTEHYDLIQLSYRLLPEVSLDCIIEDVYASFDAIQSQYSNCPIFTFGRSSGAYLSLLIARDRDIDGVIDFYGYSRINTEPFKTTNSYYAKIAQSINETMIAQLTSPTPVVQDQIAQRFLIYVYARGTGKWINMINIADYTDSKYNIAPDELKTLPPVFIAHCNGDYDVPVEESEHIMNHVPHSTFERVNKNEHDFDRRPNDEAITIYRKVVDFLNAITMV | soluble
10 | MVTKEQVVEALEGIVDPFLHKTLKETSAIKEVTVKPEKEHVSVKIAIVKTGTAEQMQLQSGIVKLVKELGAATVGLRFAEFTEEELAQFAPEQEEEQSESLLSPNSKTTFLAVASGKGGVGKSTVSVNLAVALARLGKKVGIIDADIYGFSVPDMMGIEKRPIVRGDKIIPVERLGVKVISMGFFVEDNAPVIWRGPMLGKMLNHFFTEVEWGDLDYLVLDLPPGTGDVALDVHSMLPSCKEIIVTTPHPTAAFVAARAGAMALRTEHSILGVVENMAYFESKVTGEKEYVFGKGGGDKLATELQTNVLGRIPLQQPDWNKEDFAPSVYEDTHTTGIIYSKIAETVIDKTAVTQK | not soluble
11 | MSMPYDNEAKIKQAVILLQKIVNDTSVPRNIRRAATDAIRNLQDLGLSPAVRAANAIGILEDISQDPNMPTHARISIWNVVSILETVKD | not soluble
12 | GSHMTMSRRNTDAITIHSILDWIEDNLESPLSLEKVSERSGYSKWHLQRMFKKETGHSLGQYIRSRKMTEIAQKLKESNEPILYLAERYGFESQQTLTRTFKNYFDVPPHKYRMTNMQGESRFLHPLNHYNS | soluble
13 | MIRHLEFKSRTRTDMIDITSAVQEQVRSAAVRNGVCHLFVLHTTAGITINEGADPAVQRDMVNFLDRLVPIDPYFTHAEGNSDAHIKSTLTGTSLTVFIVEGKLLLGSWQSIYLCEFDGPRHRRVAVKVVPDPLEHHHHHH | not soluble
14 | MAHHHHHHSLITANDIRAAHARGEQAMSVVLRASIITPEAREVAELLGFTITECDESVPASTSAQACKSESQRIREAIIAQLPEGQFTESLVAQLMEKVLKEKQSLELGTMQPSFTSVTGKGGVKVIDGSSVKFGRFDGAEPHCVGLTDLVTEQDGSSMAAGFMQWDNAFFPWTLNYDEIDMVLEGELHVRHEGETMIAKAGDVMFIPKGSSIEFGTPTSVRFLYVAWPANWQSVEG | soluble
15 | MDTTIGVIGNKVVHVIKENDSVKTAAEEMKKHNLGALVVIDDNDKIVGIITERDIVKVVAEGKLDAKVKDYMTRNVIGVTEDTPITDALEIMLDHGFRHLPIIGKDGKVIGIVSIRDLSKAILDPHFFQFKKEAADVKGSGYVCPVCGMEIDEYGYCGCGAGSG | soluble
16 | MAEKSCSLTEFVGTAIGDTLGLVIANVDTALLDAMKLEKRYRSIGILGARTGAGPHIMAADEAVKATNTEVVSIELPRDTKGGAGHGSLIILGGNDVSDVKRGIEVALKELDRTFGDVYGNEAGHIELQYTARASYALEKAFGAPIGRACGIIVGAPASVGVLMADTALKSANVEVVAYSSPAHGTSFSNEAILVISGDSGAVRQAVTSAREIGKTVLATLGSEPKNDRPSYI | not soluble
17 | MFNKLSTPIHIIGGGLAGCEASWQIAQSGIPVILHEMRPQKKSEAHKTGQLAELVCSNSFRSDDSSTNAVGLLHTEMRLAKSLIMKAADANKVPAGSALAVDRDGFSKTVTAALENHPLITIKREEIQEIPENWPHIIIATGPLTSPKLAKAIQTITGTEALSFFDAIAPIIYTDSINMDICWYQSRYDKIGPEGTGKDYLNCPLNKEQYEAFVQALKNAEKTEFRDFEKTPYFDGCLPIEVMAERGLETLRHGPMKPMGLTNAHNPTVKAYAVVQLRQDNKLGTLYNMVGFQTKLKYGEQVRIFRMIPGLENAEFARLGGLHRNTYLNSPIILDQTLRLKQRPGLRFAGQITGCEGYVESSAIGLLAGRFAAAEYHYNCPCLPPLTTALGLEHHHHHH | soluble
18 | DMGESVKIIDLARQMITLSGLKPNTPEQPDGDIEILITGLRPGEKLYEELLIGDNVRKTGHPRIMTANETMLPWHELSALLDRIRAACDRYDQQAIRT | not soluble
19 | MRKRLSAPELRLSLTKGPGNDGASPTQSAPSSPDGSSDLEIDELETPSDSEQLDSGHEFEWEDELPRAEGLGTSETAERLGRGCMWDVTGEDGHHWRVFRMGPREQRVDMTVIEPYKKVLSHGGYHGDGLNAVILFASCYLPRSSIPNYTYVMEHLFRYMVGTLELLVAENYLLVHLSGGTSRAQVPPLSWIRQCYRTLDRRLRKNLRALVVVHATWYVKAFLALLRPFISSKFTRKIRFLDSLGELAQLISLDQVHIPEAVRQLDRDLHGSGGT | not soluble
20 | MSIPKQLMIGSVPYEVEVVKGWIDEKENGEVRIAEVTYHEQQIKISDNVAKHEGQMKNVLHEAIHAMLYEYGLDRLNKEVNVNALTTVFFDFIKNNIRGGISSFVGYQYLLLKCPEKTNVEFYDSDTDPATLRFKKETDELSFINTAAELVETINQHPPEVDVSALGVAMAKAEVHKAVDLGVAHEQIQESAVKMTTDKQTRKLPIVDVNRSSFPMEEIAKITKKEETDPIHWKTGIKYDDEGTPRYRTRYECCMCGNRGNQYEYEENKFTKCHKCNAKLKIVQATKNGFPERDAFGNFYVANDEYSVILDGE | not soluble
21 | GPGSMPAPSLATRHFTFTHEVPADDVFELEENAPRRVPIACVTLQMVSFNRRCFWFHIAMTREGFSAPPPPFGACAVSFSGVSGDSAATTLVDDTALPQLGFKEAQHEVGVGAPNPQAVFADSLARRLSRRLEREFTSGVAVYVACGIIGENQSDLLGTPAGYGSEVTRRFGAEVFKHAMDLICEEGLGKATAA | not soluble
